Results taken from patent US20070037177A1, “CYP19A1 polymorphisms” (priority 2005, published 2007).

B1: Cys264: "a CYP19A1 polypeptide (Arg264Cys) having a cysteine at amino acid residue 264" (protein, UniProt P11511 1-503, looked up, variant R264C)
Aromatase: MVLEMLNPIHYNITSIVPEAMPAATMPVLLLTGLFLLVWNYEGTSSIPGPGYCMGIGPLISHGRFLWMGIGSACNYYNRVYGEFMRVWISGEETLIISKSSSMFHIMKHNHYSSRFGSKLGLQCIGMHEKGIIFNNNPELWKTTRPFFMKALSGPGLVRMVTVCAESLKTHLDRLEEVTNESGYVDVLTLLRRVMLDTSNTLFLRIPLDESAIVVKIQGYFDAWQALLIKPDIFFKISWLYKKYEKSVKDLKDAIEVLIAEKRCRISTEEKLEECMDFATELILAEKRGDLTRENVNQCILEMLIAAPDTMSVSLFFMLFLIAKHPNVEEAIIKEIQTVIGERDIKIDDIQKLKVMENFIYESMRYQPVVDLVMRKALEDDVIDGYPVKKGTNIILNIGRMHRLEFFPKPNEFTLENFAKNVPYRYFQPFGFGPRGCAGKYIAMVMMKAILVTLLRRFHVKTLQGQCVESIQKIHDLSLHPDETKNMLEMIFTPRNSDRCLEH
B2: Thr364: "a CYP19A1 polypeptide having a threonine at amino acid residue 364. This polypeptide (Met(364)Thr) would be considered an allozyme" (protein, UniProt P11511 1-503, looked up, variant M364T)
Aromatase: MVLEMLNPIHYNITSIVPEAMPAATMPVLLLTGLFLLVWNYEGTSSIPGPGYCMGIGPLISHGRFLWMGIGSACNYYNRVYGEFMRVWISGEETLIISKSSSMFHIMKHNHYSSRFGSKLGLQCIGMHEKGIIFNNNPELWKTTRPFFMKALSGPGLVRMVTVCAESLKTHLDRLEEVTNESGYVDVLTLLRRVMLDTSNTLFLRIPLDESAIVVKIQGYFDAWQALLIKPDIFFKISWLYKKYEKSVKDLKDAIEVLIAEKRRRISTEEKLEECMDFATELILAEKRGDLTRENVNQCILEMLIAAPDTMSVSLFFMLFLIAKHPNVEEAIIKEIQTVIGERDIKIDDIQKLKVMENFIYESTRYQPVVDLVMRKALEDDVIDGYPVKKGTNIILNIGRMHRLEFFPKPNEFTLENFAKNVPYRYFQPFGFGPRGCAGKYIAMVMMKAILVTLLRRFHVKTLQGQCVESIQKIHDLSLHPDETKNMLEMIFTPRNSDRCLEH

Columns and labels:
[1] = test system: Recombinant Human CYP19A1 Allozymes; test: CYP19A1 enzyme activity of recombinant allozymes (3H2O release from [1β3H]androst-4-ene-3,17-dione, COS-1 microsomes); type: biochemical; settings: 20 nM androstenedione substrate, corrected for transfection efficiency, 6 independent transfections
[2] = test system: Recombinant Human CYP19A1 Allozymes; test: Substrate kinetics: apparent Km of recombinant CYP19A1 allozymes with androstenedione; type: biochemical; settings: androstenedione as substrate; COS-1 microsomes

Row | Molecule | % WT activity [1] | Apparent Km [2]
1 | B1 | 72% | –
2 | B2 | – | elevated
